No end group written: not given here.
Tests used:
[1] = test system: HeLa cells; assay: Cytotoxicity test with HeLa cells (MTS, CellTiter 96 AQueous One); format: cell-based, human; conditions: 0.5-5-50 μg/ml, 48 h; FIG. 5
Procedure: FIG. 5: Cytotoxicity test carried out with HeLa cells in culture. The assay describes the bioreduction of MTS (Owen's Reagent) produced by enzymes having dehydrogenase activity present in metabolically active cells.
The cytotoxity tests were carried out on HeLa cell lines growing in adhesion. Cell lines were maintained in RPMI 1640 culture medium containing 10% fetal calf serum and 0.1% antibiotics (penicillin, streptomycin and gentamycin); cultivated under humid 5% CO2 atmosphere at 37° C. To carry out the cytotoxicity test, the system CellTiter 96 AQueous One Solution Cell Proliferation Assay by Promega was used. In short, Hela cells were resuspended in a 100 μl volume of medium at a concentration of 10,000 cells/ml, then seeded on 96-well flat bottom plates and left to adhere in incubator at 37° C. for 3 h. Thereafter, Par37 peptide was added at increasing concentrations (0.5-5-50 μg/ml). The plate was incubated at 37° C. in 5% CO2 for further 48 h. Then 20 μl of CellTiter 96 AQueous One Solution reagent were added. Cells were thus incubated for 1 h at 37° C. in a CO2 incubator. The test was carried out in triplicate and compared to a row of blanks containing exclusively culture medium. After incubation, a spectrophotometer reading was carried out, measuring absorbance at 490 nm.

[2] = test system: human erythrocytes; assay: Hemolysis test; format: cell-based; conditions: 0.0025-0.025-0.25-2.5-25 mM; 6% erythrocytes; reading at 415 nm; FIG. 6
Procedure: FIG. 6: Hemolysis test with human erythrocytes. The assay is capable of describing possible hemolysis induced after incubation with Par37 peptide at different concentrations. There were used 1×PBS as negative control and 0.1% Triton X100 as positive control. Optical Densities measured at […] indicate hemoglobin release in the medium following cell lysis.
For the hemolysis test, peripheral blood, collected from a donor, in heparin was used. A solution of 6% human erythrocytes was prepared. Erythrocyte concentration was controlled by reading the optical density of an hemolysate of the cell suspension thus made: 0.5 ml blood+7 ml distilled water should give a reading of 0.7 O.D. at the spectrophotometer at 541 nm. Erythrocytes were incubated in triplicate with an increasing concentration of Par37 (0.0025-0.025-0.25-2.5-25 mM) and with 1×PBS as negative control and a 0.1% solution of Triton X100 as positive control. Sample reading was carried out at 415 nm.

[3] = test system: heparinised blood from Pj allergic subjects; assay: Histamine release from blood of Pj allergic patients; format: cell-based, human; conditions: 0.0001 to 1 μg/ml; Pj allergic subjects n=5; FIG. 9
Procedure: FIG. 9: Testing of histamine release from blood of Pj allergic patients. The antigens used were: rParj1 (line with squares, denominated Pj1) and the Par37 peptide (line with triangles). On the x-axis the amounts of protein used, and on the y-axis the percentage of histamine released with respect to the percentage of total histamine present in the patient's mastocytes are reported.
The histamine release assay was carried out by using heparinised blood from Pj allergic subjects (n=5) and an allergen concentration scale ranging from 0.0001 and 1 μg/ml. Release protocol was carried out as previously described (Colombo, P., et al., Identification of an immunodominant IgE epitope of the Parietaria Judaica major allergen. J. Immunol, 1998. 160(6): p. 2780-5). The data reported in FIG. 9 show the percentage of release obtained after stimulation with Parj1 allergen.

[4] = test system: LPS (Escherichia coli, serotype 026:B6); format: binding
[5] = test system: PBMC from Pj allergic patients and non-allergic subjects; assay: PBMC proliferation (Cell Proliferation ELISA, BrdU); format: cell-based, human; conditions: 0.1, 1 and 10 μg/ml, 5 days; 3 Pj allergic patients and 3 non-allergic subjects; FIG. 7
Procedure: FIG. 7: Analysis of PBMC proliferation of 3 Pj allergic patients and 3 healthy subjects. Stimulation was conducted by adding to the culture medium rParj1 and Par37 synthetic peptide at a concentration of 0.1, 1 and 10 μg/ml. Numerical values on the y-axis indicate proliferation indexes with respect to the unstimulated sample. White histograms identify PBMC stimulated by Parj1, black histograms identify PBMC stimulated by Par37 peptide. Horizontal bars indicate significance values (values above the bar indicate a positive stimulation; values below the bar indicate absence of proliferation).
PBMC from Pj allergic patients (n=3) and non-allergic subjects (n=3) were purified by Ficoll gradient and resuspended in complete RPMI (10% AB serum). Cells were stimulated 5 days with 0.1, 1 and 10 μg/ml rParj1 and Par37. For the determination of stimulation indexes, cells were treated according to what described in the Cell Proliferation ELISA kit, BrdU (colorimetric) (Roche).

[6] = test system: PBMC of non-allergic subjects; assay: ELISA of IFN-γ release from PBMC stimulated with the antigen itself; conditions: 1 and 10 μg/ml; healthy subjects n=4; FIG. 8
Procedure: Black bars indicate the values of the unstimulated sample (negative control), checkered bars the values of cells stimulated by rParj1.01, white bars the values obtained from cells stimulated by Par37 peptide.
(IFN-γ) cytokine production in supernatants after stimulation with the various antigens was evaluated by ELISA, using commercial kits and following the manufacturers' (GE healthcare, IFNg, Human, Biotrak) instructions.

| Molecule | toxic effect on HeLa cells (MTS bioreduction, absorbance 490 nm) [1] | hemolytic effect on human erythrocytes [2] | histamine release (anaphylactic activity) [3] | LPS-binding capability ([4]; FIG. 3, native isoforms of Parj1) | lowest dilution with positive reaction to the endotoxin in the LAL test (endpoint) ([4]; eluate of HisTrap column loaded with 100 μg protein, then 100 μg LPS, LAL sensitivity 0.12 EU) | cell proliferation (lymphoproliferative activity) of PBMC [5] | IFN-γ release from PBMC induced by the antigen itself [6] |
| --- | --- | --- | --- | --- | --- | --- | --- |
| LPVSLRHGPVTGPSDPAHKARLERPQIRVPPPAPEKA [Par37] | no toxic effect | no hemolytic effect | no histamine release is observed |  |  |  |  |
| QETCGTMVRALMPCLPFVQGKEKEPSKGCCSGAKRLDGETKTGPQRVHACECIQTAMKTYSDIDGKLVSEVPKHCGIVDSKLPPIDVNMDCKTVGVVPRQPQLPVSLRHGPVTGPSDPAHKARLERPQIRVPPPAPEKA (protein, Recombinant isoform of Parietaria judaica major allergen Parj1, 139 aa, containing the Par37 region) QETCGTMVRALMPCLPFVQGKEKEPSKGCCSGAKRLDGETKTGPQRVHACECIQTAMKTYSDIDGKLVSEVPKHCGIVDSKLPPIDVNMDCKTVGVVPRQPQLPVSLRHGPVTGPSDPAHKARLERPQIRVPPPAPEKA |  |  |  | has the LPS-binding capability | 1/256 | capable of inducing cell proliferation in all allergic patients | impressive secretion of cytokine |

— patent US8535680B2, “Anti-LPS factor from Parietaria judaica and methods of use thereof” (Consiglio Nazionale Delle Ricerche, priority 2008, dated 2013)
